Source: the RNAGym collection of RNA variant scans (doi:10.7554/elife.80360)

B1: Hammerhead Ribozyme (parent)
chain: ACCGGAUGUGCUUUCCGGUCUGAUGAGUCCGUGAGGACGAAACAG

Variants of: B1
Assay: self-cleavage, relative activity (ratio to wild type); higher = more cleavage; co-transcriptional

Variant	self-cleavage
ACCGGAUGUGCAUUCCGGUGUGAUGAGUCCGUGAGGACGAAACAG [U12A C20G]	0.312
ACCGGAUGUGCUUUCCGGUCUGGUGAGUCCGUGAGGACGAGACAG [A23G A41G]	0.334
ACCGGAUGUGCUGUUCGGUCUGAUGAGUCCGUGAGGACGAAACAG [U13G C15U]	0.763
ACCGGAUGUGCUUUCCGGUCUGAUGAGUCCGUGAGGACUAAACAA [G39U G45A]	0.351
ACCGGAUGUGCCUUCCGGUCUGAUGAGUCCGUGCGGACGAAACAG [U12C A34C]	0.877
ACCGGAUGUGCUUUCCGGUGUGAUGAGUCCGUGAGGACGAAAAAG [C20G C43A]	0.353
ACCGGAUGUGGUUUCCGGUCUGAUGAGUCCAUGAGGACGAAACAG [C11G G31A]	1.03
ACCGGAUGUCCUUUCCGGUCUGAUGAGUCCGUGAGGCCGAAACAG [G10C A37C]	1.21
ACCGGAUGUGCUCUCCGGUCUGAUGAGUCCAUGAGGACGAAACAG [U13C G31A]	1.04
ACCAGAUGGGCUUUCCGGUCUGAUGAGUCCGUGAGGACGAAACAG [G4A U9G]	0.423
ACCGGAUGUGCUGUCCGGUCUGAUGUGUCCGUGAGGACGAAACAG [U13G A26U]	0.678
ACCGGAUGUGCUUACCGGUCUGAUGAGUCCGUGAUGACGAAACAG [U14A G35U]	0.721
ACCGGAUGUGGGUUCCGGUCUGAUGAGUCCGUGAGGACGAAACAG [C11G U12G]	1.17
UCCGGAUGUGCUUUCCGGUCUGAUGAGUCCGUGAGGACGAAACAC [A1U G45C]	0.493
ACCGUAUGUGCUUUCGGGUCUGAUGAGUCCGUGAGGACGAAACAG [G5U C16G]	0.883
ACCGGAUGGCCUUUCCGGUCUGAUGAGUCCGUGAGGACGAAACAG [U9G G10C]	0.987
ACAGGAUGUGCUUUCCGGUCUGAUGAGUCCGUGAGGAGGAAACAG [C3A C38G]	0.329
ACCGGGUGUGCUUUCCGGUCUGAUGAGUCCGUGAGGACGAACCAG [A6G A42C]	0.268
ACCGGAUGUGCUUUCCGGUUUGAUCAGUCCGUGAGGACGAAACAG [C20U G25C]	0.273
ACGGGAUGUGCUUUCCGGUCUGAUGAGUCCGUGAUGACGAAACAG [C3G G35U]	0.32
ACCGGAUGUUCUUUCCGGACUGAUGAGUCCGUGAGGACGAAACAG [G10U U19A]	0.347
ACCGAAUGUGCUUUCCGGUCCGAUGAGUCCGUGAGGACGAAACAG [G5A U21C]	0.977
ACCGGAUCUGCUUUCCGGUCUGAUGAGUCCGUGAGGACGAAACAC [G8C G45C]	0.717

Variant	self-cleavage
ACCGGAUUUGCUUUCCGGUCUGAUGAGUCCGUGAGGACGAAUCAG [G8U A42U]	0.344
ACCGGAUGUGCUUCCCCGUCUGAUGAGUCCGUGAGGACGAAACAG [U14C G17C]	0.342
ACCGGAUGCGCUUUCCGGUCUGGUGAGUCCGUGAGGACGAAACAG [U9C A23G]	0.361
ACCGGAUGUGCGUGCCGGUCUGAUGAGUCCGUGAGGACGAAACAG [U12G U14G]	0.961
ACCGGAUGUGCUUUCCGCUCUUAUGAGUCCGUGAGGACGAAACAG [G18C G22U]	0.29
ACCGGAUGUACUUGCCGGUCUGAUGAGUCCGUGAGGACGAAACAG [G10A U14G]	1.04
ACCGGAUGUGCUUUCGGGUCUGAUGAGUCCGAGAGGACGAAACAG [C16G U32A]	1.03
ACCGUAUGUGCUUUCCGGUCUGAUGAGUCCGUGAGGACGCAACAG [G5U A40C]	0.375
UCCGGAUGUACUUUCCGGUCUGAUGAGUCCGUGAGGACGAAACAG [A1U G10A]	0.815
ACCGGAUGGGCUUUCCGGUCUGAUGAGUCCGUGAAGACGAAACAG [U9G G35A]	0.707
ACCGGAUGGGCUUUCCGGUCUGAUGAGUCCGUGAUGACGAAACAG [U9G G35U]	0.64
AUCGGAUGUGCUUUGCGGUCUGAUGAGUCCGUGAGGACGAAACAG [C2U C15G]	0.385
ACCGGAUGUGCUUUCCGGUCUGAUGAGUCCGUGAGGAAGAAAGAG [C38A C43G]	0.382
ACCGGAUGUGCUUUCCGGUCUGAUGAGUCCGUGAUGACGAAUCAG [G35U A42U]	0.344
ACCGGAUGUGCUUUCCGGUCUCAUGGGUCCGUGAGGACGAAACAG [G22C A26G]	0.253
ACCGGAUGUGCUUUCCUGUCUGAUGGGUCCGUGAGGACGAAACAG [G17U A26G]	0.33
ACCGGAUGUGCUUUCCGCUCUGAUGAGUCCGUGAAGACGAAACAG [G18C G35A]	0.537
ACCGGAUGUGCUUUCCGGUCAGAUGAGUCCGUGAGGACGACACAG [U21A A41C]	0.437
ACCGGAUGUGCGUUCCGGUCUGAUGAGUCCGUGAGGUCGAAACAG [U12G A37U]	0.438
ACCGGAUGUGCUUUCCGGUCUGAUGAGCCCGUGAGGACUAAACAG [U28C G39U]	0.291
ACCGGAUGUGCUUUCCGGUAUGAUUAGUCCGUGAGGACGAAACAG [C20A G25U]	0.619
ACCGGAUAUGCUUUCCGGUCUGUUGAGUCCGUGAGGACGAAACAG [G8A A23U]	0.383
ACCUGAUGUGCUUUCCCGUCUGAUGAGUCCGUGAGGACGAAACAG [G4U G17C]	0.34

Variant	self-cleavage
ACCGGAUGUGCUUUCCGGUCUGAUGAGUCCGUGAGGACGAAACAU [G45U]	0.898
ACCGGAUGUGCUUUCGGGUCUGAUGAGUACGUGAGGACGAAACAG [C16G C29A]	0.39
ACCGGAUGUGCUUUCCGGUCUGAUGAGUCCGAAAGGACGAAACAG [U32A G33A]	0.961
ACCGGAUUAGCUUUCCGGUCUGAUGAGUCCGUGAGGACGAAACAG [G8U U9A]	1.11
ACCGGAAGUGCUUUCUGGUCUGAUGAGUCCGUGAGGACGAAACAG [U7A C16U]	1.17
ACCGGAUGUGCUUUCCGGUCUGAUGAGUCCGUGGGGACGGAACAG [A34G A40G]	0.345
ACAGGAUGUGCUUUCCGGUCUGCUGAGUCCGUGAGGACGAAACAG [C3A A23C]	0.352
UCCGGAUGUGCUUUCCGGUCUGAUGAGUCCGUGAGGACGAAACCG [A1U A44C]	0.574
AGCGGAUGUGCUUUCCGGUCUGAUGAUUCCGUGAGGACGAAACAG [C2G G27U]	0.327
ACCUGAUGUGCUUCCCGGUCUGAUGAGUCCGUGAGGACGAAACAG [G4U U14C]	0.416
ACCGGAUGUGCUUUCCAGUCUGAUGAGUCCGUGAGGUCGAAACAG [G17A A37U]	0.528
ACCGGAUGUGCUUUCCGGUCGGAUGAGUCCGUGAGGACGAAAAAG [U21G C43A]	0.346
ACCGGAUGUGCUUUCCGGUCUGAUGAGUCCGGGAGGACGUAACAG [U32G A40U]	0.39
ACCGGAUGUGCUUUCCGGUCUGAUGAGUCCUUGUGGACGAAACAG [G31U A34U]	0.844
ACCGGAUGUGCUUUCCGGUCUGAUGAGGCCGCGAGGACGAAACAG [U28G U32C]	0.664
ACCGGAUGUGCUUUCCGGUCUGAUGAGUCCGUGACGACGAUACAG [G35C A41U]	0.356
ACAGGAUGUGCCUUCCGGUCUGAUGAGUCCGUGAGGACGAAACAG [C3A U12C]	0.262
ACCGGAUGUACUUUCCGAUCUGAUGAGUCCGUGAGGACGAAACAG [G10A G18A]	0.943
ACCGGAUGUGCUUUCCGGUCAGACGAGUCCGUGAGGACGAAACAG [U21A U24C]	0.329
ACCGGAUGUGCUUUCCGCUCUGAUGAGUCGGUGAGGACGAAACAG [G18C C30G]	0.372
ACCGGAGGUGCUUUCCGGUCUGAUGAGUCGGUGAGGACGAAACAG [U7G C30G]	1.19
ACCGGAUGUGCUCUCCGGCCUGAUGAGUCCGUGAGGACGAAACAG [U13C U19C]	0.877
AACGGAUGUGCUUUCCGGUCUGAUGAGUCCGUGAGCACGAAACAG [C2A G36C]	0.307

Variant	self-cleavage
ACCGGAUGUCCUUUCCCGUCUGAUGAGUCCGUGAGGACGAAACAG [G10C G17C]	0.614
ACCGGAUCUGCUUUCCGGUCUGAUGAGUCCGUGCGGACGAAACAG [G8C A34C]	0.83
ACCGGAUGUGCUUUACGGUCUGAUGAGUCCGUGAGGCCGAAACAG [C15A A37C]	0.403
ACCGGAUGUGCUUUCCGUUCUGAAGAGUCCGUGAGGACGAAACAG [G18U U24A]	0.858
ACCGGAUGUGCUUUCCGGUCUCAUGAGUUCGUGAGGACGAAACAG [G22C C29U]	0.3
ACCGGAUGUGCUUUCCGGUCUGAUGAGUCCGUGAUGAUGAAACAG [G35U C38U]	0.775
ACCGGAUGUGCUUUCCGGUCUGUUGAGUCCGUGAGGACGAAAGAG [A23U C43G]	0.356
ACCGUAUGUGCUUUCCGGUCUGAUGAGUCUGUGAGGACGAAACAG [G5U C30U]	0.967
ACGGGAUGUGCUUUCCGGUCUGAUGAGUCCGUGAGGACGAAACUG [C3G A44U]	0.32
ACCGGAUGUGCUUACCGGUGUGAUGAGUCCGUGAGGACGAAACAG [U14A C20G]	0.346
ACCGGAUGUGCUUUCCGGUCUGAUGAGGCCGUGAGGACGAAAAAG [U28G C43A]	0.323
ACCGGAUGUGCUUUCCGGUCUGAUGAGUCCGUGAGGACGACACAC [A41C G45C]	0.336
UCCGGAUGUGCUUUUCGGUCUGAUGAGUCCGUGAGGACGAAACAG [A1U C15U]	0.55
GCCGGAUGUGCUUUCCGGUCUUAUGAGUCCGUGAGGACGAAACAG [A1G G22U]	0.408
ACCGGAUGUUCUUUCCGGUCUGAUAAGUCCGUGAGGACGAAACAG [G10U G25A]	0.313
ACCGGAUGUGCUUUCCGGUCUGACGAGUCGGUGAGGACGAAACAG [U24C C30G]	0.613
ACCGGAUGUGCUUUCCGGUCUGUUGAGUCCGUGAGGCCGAAACAG [A23U A37C]	0.381
AGCGGAUAUGCUUUCCGGUCUGAUGAGUCCGUGAGGACGAAACAG [C2G G8A]	0.385
ACCGGAUCUGCUUUCCGGUCUGAUGAGUCCCUGAGGACGAAACAG [G8C G31C]	0.822
ACCGGAUGUGCUUUCCGGUCUGAUGGGUCCGUGAGGUCGAAACAG [A26G A37U]	0.352
ACCGGAUGUGCUUUCCGGUCUGAUGAGUCCGUGAGGACGAAAGAG [C43G]	0.406
ACCGGAUGUGCUUUCCGGUCUGAUGAGUCCAUGAGGAGGAAACAG [G31A C38G]	0.592
ACCGGAUGUGCUUUCCGGUCUGAGGAGUCCGUGAGGACGUAACAG [U24G A40U]	0.308

Variant	self-cleavage
ACCGGAUGUGCUUUCCGGUCUGAUCAGUCCAUGAGGACGAAACAG [G25C G31A]	0.339
ACCGGAAAUGCUUUCCGGUCUGAUGAGUCCGUGAGGACGAAACAG [U7A G8A]	1.23
ACCGGAUGUGCUUUCCGGUCUGAUGAGCCCGUGAGGACGAAACUG [U28C A44U]	0.599
ACCGGACGUGCUUUCCGGUCUGAUGAGUCCGUGAGGCCGAAACAG [U7C A37C]	0.828
ACCGCAUGUGCUUUCCGGUCUAAUGAGUCCGUGAGGACGAAACAG [G5C G22A]	0.263
ACCGGAUGUGCUUCCCGGUCUGAUGAGUCCGUGAGGACGAAGCAG [U14C A42G]	0.249
ACCGGUUGUGCUUUCCGGUCGGAUGAGUCCGUGAGGACGAAACAG [A6U U21G]	0.449
ACCGGAUGUGCUGUCGGGUCUGAUGAGUCCGUGAGGACGAAACAG [U13G C16G]	0.899
ACCGGAUGUGCUUUCCGGUAUGAUGAGUCCGUGAGGGCGAAACAG [C20A A37G]	0.441
ACCGGAAGUGCUUUCCGGUCUGAUGAGUCCGUGAGGACGAAACCG [U7A A44C]	0.397
ACCGGAUGUGCUUUCCGGUCUUAUGAGUCCGUGAGGACGAAUCAG [G22U A42U]	0.36
ACCGGAUGUGCUUUCCGGUCUAAUGAGUCCGUGAGGACGAAACAC [G22A G45C]	0.436
ACCGGAUGUGCUUUCCGGUCCGAUAAGUCCGUGAGGACGAAACAG [U21C G25A]	0.336
GCCGGAUGUGCUUUCCGGUCUGAUUAGUCCGUGAGGACGAAACAG [A1G G25U]	0.353
ACCGGAUGUGCUUGCCGGUCUGAUGCGUCCGUGAGGACGAAACAG [U14G A26C]	0.764
ACCGGAUGUGCUUUCCCGUCUGAUGUGUCCGUGAGGACGAAACAG [G17C A26U]	0.326
ACCGGAUGUGCUUUCCGGUCUGAUUAGUCCGAGAGGACGAAACAG [G25U U32A]	0.32
ACCGGAUGUGCGUUCCGGUCUGAUGAGUCCGUGAGGACGAAAGAG [U12G C43G]	0.181
ACCGGAUGUGCUUUCCGGUCUCAUGAGUCCGUGAUGACGAAACAG [G22C G35U]	0.303
AACGGAUGUGCUUUCCGGUCUGAUGAGUCCGUGAGGACGAUACAG [C2A A41U]	0.346
ACCGGAUCUGCUUUCCGGUCCGAUGAGUCCGUGAGGACGAAACAG [G8C U21C]	0.611
ACCGGAUUUGCUUUCCGGUCUGAUGAGUCCGUGAGGACGAAACAG [G8U]	1.02
